Results as given in doi:10.1101/133777 (bioRxiv, 2017).

Target: 3HA-3FLAG-SPAK (mouse, UniProt Q9Z1W9 1-556)
Assay: pull-down

B1: BioEase-FBXL5 (natural protein)
chain: MAPFPEEVDVFTAPHWRMKQLVGLYCDKLSKTNFSNNNDFRALLQSLYATFKEFKMHEQIENEYIIGLLQQRSQTIYNVHSDNKLSEMLSLFEKGLKNVKNEYEQLNYAKQLKERLEAFTRDFLPHMKEEEEVFQPMLMEYFTYEELKDIKKKVIAQHCSQKDTAELLRGLSLWNHAEERQKFFKYSVDEKSDKEAEVSEHSTGITHLPPEVMLSIFSYLNPQELCRCSQVSMKWSQLTKTGSLWKHLYPVHWARGDWYSGPATELDTEPDDEWVKNRKDESRAFHEWDEDADIDESEESAEESIAISIAQMEKRLLHGLIHNVLPYVGTSVKTLVLAYSSAVSSKMVRQILELCPNLEHLDLTQTDISDSAFDSWSWLGCCQSLRHLDLSGCEKITDVALEKISRALGILTSHQSGFLKTSTSKITSTAWKNKDITMQSTKQYACLHDLTNKGIGEEIDNEHPWTKPVSSENFTSPYVWMLDAEDLADIEDTVEWRHRNVESLCVMETASNFSCSTSGCFSKDIVGLRTSVCWQQHCASPAFAYCGHSFCCTGTALRTMSSLPESSAMCRKAARTRLPRGKDLIYFGSEKSDQETGRVLLFLSLSGCYQITDHGLRVLTLGGGLPYLEHLNLSGCLTITGAGLQDLVSACPSLNDEYFYYCDNINGPHADTASGCQNLQCGFRACCRSGE
modifications: biotin (biotinylated FBXL5, BioEase tag)
B1: binds.
